This is an account of results in PMC3920478, “Small molecule-mediated refolding and activation of myosin motor function” (eLife, 2014).

Entries after “also recorded” stand apart in the source; their conditions may differ.

The target in experiment [1] is β-cardiac myosin (Sus scrofa, UniProt P79293). The experiment is described as follows: Steady-state basal and actin-activated Mg2+-ATPase (NADH-coupled assay). It counts as biochemical, Porcine. The following applies: β-cardiac myosin S1, dose-dependence. The protocol: Rabbit fast skeletal muscle heavy meromyosin (HMM) was prepared as described by [Margossian and Lowey (1982)]. Porcine β-cardiac myosin was prepared essentially as described by [Pant et al. (2009)] and [Jacques et al. (2008)] and further purified by gel filtration. S1 and HMM fragments were produced by proteolytic digestion of the full-length proteins with 0.05 mg/ml papain (10 min, 25°C) for S1 and with 0.1 mg/ml TLCK-treated α-chymotrypsin (15 min, 25°C) for HMM. Reactions were stopped with specific protease inhibitors for papain (10 µM E−64) and chymotrypsin (10 µM chymostatin, 1 mM benzamidine). Proteolytic fragments were further purified by actin-coprecipitation. Pellets were washed twice and myosin was extracted from the pellets using ATP containing buffer. Gel filtration was used to further increase purity of myosin S1 and HMM fragments. His-tagged motor domain constructs of Dd myosin-2, Dd myosin-1B, Dd myosin-1C, Dd myosin-1D, Dd myosin-1E, Dd myosin-5b fused to two Dd α-actinin repeats substituting the light-chain binding domains ([Anson et al., 1996]) were expressed in Dd AX3-ORF + cells and purified by Ni^2+-chelate affinity chromatography ([Manstein and Hunt, 1995]).
Chain of β-cardiac myosin (P79293 1-810 limits assumed): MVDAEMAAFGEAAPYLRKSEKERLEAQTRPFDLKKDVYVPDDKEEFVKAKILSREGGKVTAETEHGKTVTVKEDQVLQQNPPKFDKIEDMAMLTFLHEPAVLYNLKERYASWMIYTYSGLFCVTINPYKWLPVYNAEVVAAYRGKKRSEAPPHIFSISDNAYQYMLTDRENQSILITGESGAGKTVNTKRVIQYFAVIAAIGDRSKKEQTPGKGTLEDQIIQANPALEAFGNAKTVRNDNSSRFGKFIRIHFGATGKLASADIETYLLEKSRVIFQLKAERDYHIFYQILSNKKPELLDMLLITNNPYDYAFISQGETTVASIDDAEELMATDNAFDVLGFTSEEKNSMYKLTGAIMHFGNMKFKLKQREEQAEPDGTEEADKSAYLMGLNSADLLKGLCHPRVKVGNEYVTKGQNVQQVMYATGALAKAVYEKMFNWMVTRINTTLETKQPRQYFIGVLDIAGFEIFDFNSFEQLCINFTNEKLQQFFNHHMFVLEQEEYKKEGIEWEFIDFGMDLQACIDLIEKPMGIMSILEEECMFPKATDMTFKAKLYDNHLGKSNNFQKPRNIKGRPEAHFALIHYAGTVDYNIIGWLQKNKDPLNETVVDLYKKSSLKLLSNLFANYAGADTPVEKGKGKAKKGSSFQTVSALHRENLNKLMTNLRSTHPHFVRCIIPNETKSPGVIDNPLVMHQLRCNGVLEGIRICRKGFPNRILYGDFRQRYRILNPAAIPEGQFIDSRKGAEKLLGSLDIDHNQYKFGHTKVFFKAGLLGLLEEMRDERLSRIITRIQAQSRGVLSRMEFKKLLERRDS
Basal and actin-activated Mg^2+-ATPase activities were measured using the NADH-coupled assay described previously ([Furch et al., 1998]) adapted for higher throughput screens for a temperature controlled plate reader (Multiscan FC, Thermo Scientific, Waltham, MA) at 25°C. […] Control measurements were carried out in the absence of drug, as well as in the presence of according concentrations of the non-binding (−)-enantiomer EMD 57439 to account for possible absorption effects. […] Data points are mean values from 3 to 5 independent experiments. Error bars indicate standard deviations.

The target of experiment [2] is T1, β-cardiac myosin S1 (Sus scrofa, UniProt P79293).
T1 construct: S1 and HMM fragments were produced by proteolytic digestion of the full-length proteins with 0.05 mg/ml papain; from tissue; host or cells: porcine cardiac muscle
T1 sequence (P79293 1-843 limits assumed): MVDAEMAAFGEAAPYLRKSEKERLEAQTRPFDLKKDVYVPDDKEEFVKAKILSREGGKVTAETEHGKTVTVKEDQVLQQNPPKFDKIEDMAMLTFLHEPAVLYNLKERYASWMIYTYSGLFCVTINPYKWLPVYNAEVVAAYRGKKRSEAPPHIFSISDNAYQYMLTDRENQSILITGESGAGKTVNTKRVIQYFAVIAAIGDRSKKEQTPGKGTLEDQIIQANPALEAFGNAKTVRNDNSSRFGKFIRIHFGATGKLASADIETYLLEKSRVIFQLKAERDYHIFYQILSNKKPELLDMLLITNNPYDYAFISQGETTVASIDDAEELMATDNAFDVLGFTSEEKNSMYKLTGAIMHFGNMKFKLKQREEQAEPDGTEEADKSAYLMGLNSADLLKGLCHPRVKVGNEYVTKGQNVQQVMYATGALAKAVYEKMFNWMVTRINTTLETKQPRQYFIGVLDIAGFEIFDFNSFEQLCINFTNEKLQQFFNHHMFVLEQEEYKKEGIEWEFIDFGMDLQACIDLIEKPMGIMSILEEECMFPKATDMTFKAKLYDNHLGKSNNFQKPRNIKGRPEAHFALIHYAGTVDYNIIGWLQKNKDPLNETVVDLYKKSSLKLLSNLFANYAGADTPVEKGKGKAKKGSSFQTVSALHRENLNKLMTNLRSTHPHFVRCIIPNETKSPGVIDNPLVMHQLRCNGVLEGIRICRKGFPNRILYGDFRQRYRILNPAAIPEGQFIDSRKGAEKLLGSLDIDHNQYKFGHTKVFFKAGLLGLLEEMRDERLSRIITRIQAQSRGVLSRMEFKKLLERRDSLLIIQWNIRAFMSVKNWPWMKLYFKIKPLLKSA
The experiment in a line: Microscale thermophoresis direct binding. Details: species or system Porcine. From the text:
Proteolytic fragments were further purified by actin-coprecipitation.
In general terms: MST reads how a fluorescent partner responds to local heating, with and without ligand.

For experiment [3], the system named is phosphodiesterase III. Also on record: method as in Gambassi et al., 1993. The following applies: ref Gambassi et al., 1993; cited from earlier work.
The target in experiment [4] is F-actin (UniProt P68135).

On to `COc1ccc(C(=O)N2CCCc3cc(C4=NNC(=O)SC4C)ccc32)cc1OC` (stereo not shown) [EMD 57439], for which the “Activation of the actin-activated ATPase (in words)” value in experiment [1] is listed as “Neither binding nor activation was observed; also recorded: no activation”. Also, in experiment [2], the “Binding (in words)” value is given as “Neither binding nor activation was observed”. The “Phosphodiesterase III inhibition” value in experiment [3] was “potent phosphodiesterase III inhibitor”.

In the case of “β-cardiac myosin (from UniProt P79293 1-1935) (natural protein)”, in experiment [4], the K M(Actin): F-actin concentration for half-maximal activation of the steady-state ATPase, control without EMD 57033 was determined as 36.8 µM; the K M(Actin): F-actin concentration for half-maximal activation of the steady-state ATPase, with 25 µM EMD 57033 came to 3.6 µM; the kcat/K M(Actin) of the actin-activated ATPase, calculated ratio, control without EMD 57033 was 3260 M⁻¹ s⁻¹; the kcat/K M(Actin) of the actin-activated ATPase, calculated ratio, with 25 µM EMD 57033 is 0.0528 µM^v1 s^−1.
